Where a chain is given by its changes, count along the chain named. Names and notes keep the numbering of the source.
T1: Ole1-Myc-Cub-LexA-VP16 (S. cerevisiae, UniProt P21147 1-510)
T1 construct: Ole1, Δ9 acyl-CoA (stearoyl-CoA) desaturase of S. cerevisiae; the endogenous chromosomal OLE1 gene, with the tag at its carboxyl end; The tag was put behind the chromosomal gene, so the whole protein is likely; also called Δ9 acyl-CoA desaturase Ole1; Ole1-Cub-LexA-VP16; not shown: Myc, C-terminal, kept; Cub-LexA-VP16, C-terminal, kept
T1 sequence (looked up): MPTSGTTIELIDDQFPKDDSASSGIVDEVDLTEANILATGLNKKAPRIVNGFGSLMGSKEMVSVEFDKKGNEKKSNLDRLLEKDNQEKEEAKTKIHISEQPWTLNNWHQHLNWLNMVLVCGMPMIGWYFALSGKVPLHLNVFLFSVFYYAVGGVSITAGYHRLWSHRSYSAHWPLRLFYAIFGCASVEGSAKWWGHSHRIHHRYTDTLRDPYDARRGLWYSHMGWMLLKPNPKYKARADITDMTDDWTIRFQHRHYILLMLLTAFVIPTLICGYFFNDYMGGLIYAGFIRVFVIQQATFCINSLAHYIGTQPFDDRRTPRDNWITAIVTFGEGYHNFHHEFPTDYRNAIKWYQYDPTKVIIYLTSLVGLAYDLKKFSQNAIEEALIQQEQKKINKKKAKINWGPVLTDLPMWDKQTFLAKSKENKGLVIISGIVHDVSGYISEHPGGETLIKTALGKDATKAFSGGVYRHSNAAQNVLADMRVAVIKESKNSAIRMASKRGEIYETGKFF

T2: Slc1-Cub-LexA-VP16 (S. cerevisiae, UniProt P33333 1-303)
T2 construct: Slc1, lysophosphatidic acid acyltransferase of S. cerevisiae; The end of the tag is read from the order of the printed label; also called Slc1 bait (strain YBG2); pTMBV4-SLC1; not shown: Cub-LexA-VP16, C-terminal, kept
T2 sequence (looked up): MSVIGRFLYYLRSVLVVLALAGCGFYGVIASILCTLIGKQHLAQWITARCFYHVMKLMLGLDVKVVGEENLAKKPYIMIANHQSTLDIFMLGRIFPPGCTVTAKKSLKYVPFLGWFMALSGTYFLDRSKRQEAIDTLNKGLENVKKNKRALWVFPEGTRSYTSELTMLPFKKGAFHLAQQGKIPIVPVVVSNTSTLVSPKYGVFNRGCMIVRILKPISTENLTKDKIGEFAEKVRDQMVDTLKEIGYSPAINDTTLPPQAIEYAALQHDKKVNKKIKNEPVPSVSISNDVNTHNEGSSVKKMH

B1: NubG-Sct1 (enzyme, S. cerevisiae, UniProt P32784 1-759, looked up)
chain: MPAPKLTEKFASSKSTQKTTNYSSIEAKSVKTSADQAYIYQEPSATKKILYSIATWLLYNIFHCFFREIRGRGSFKVPQQGPVIFVAAPHANQFVDPVILMGEVKKSVNRRVSFLIAESSLKQPPIGFLASFFMAIGVVRPQDNLKPAEGTIRVDPTDYKRVIGHDTHFLTDCMPKGLIGLPKSMGFGEIQSIESDTSLTLRKEFKMAKPEIKTALLTGTTYKYAAKVDQSCVYHRVFEHLAHNNCIGIFPEGGSHDRTNLLPLKAGVAIMALGCMDKHPDVNVKIVPCGMNYFHPHKFRSRAVVEFGDPIEIPKELVAKYHNPETNRDAVKELLDTISKGLQSVTVTCSDYETLMVVQTIRRLYMTQFSTKLPLPLIVEMNRRMVKGYEFYRNDPKIADLTKDIMAYNAALRHYNLPDHLVEEAKVNFAKNLGLVFFRSIGLCILFSLAMPGIIMFSPVFILAKRISQEKARTALSKSTVKIKANDVIATWKILIGMGFAPLLYIFWSVLITYYLRHKPWNKIYVFSGSYISCVIVTYSALIVGDIGMDGFKSLRPLVLSLTSPKGLQKLQKDRRNLAERIIEVVNNFGSELFPDFDSAALREEFDVIDEEEEDRKTSELNRRKMLRKQKIKRQEKDSSSPIISQRDNHDAYEHHNQDSDGVSLVNSDNSLSNIPLFSSTFHRKSESSLASTSVAPSSSSEFEVENEILEEKNGLASKIAQAVLNKRIGENTAREEEEEEEEEEEEEEEEEEGKEGDA
notes: Sct1, glycerophosphate acyltransferase of S. cerevisiae; also called pNubG-SCT1; pADSL-NubG-SCT1; source: yeast two-hybrid fusion (split ubiquitin prey), from plasmid pADSL-NubG-SCT1 in S. cerevisiae; not shown: NubG, N-terminal, kept
B2: NubG-Dga1 (full-length NubG-Dga1 fusion) (enzyme, S. cerevisiae, UniProt Q08650 1-418, looked up)
chain: MSGTFNDIRRRKKEEGSPTAGITERHENKSLSSIDKREQTLKPQLESCCPLATPFERRLQTLAVAWHTSSFVLFSIFTLFAISTPALWVLAIPYMIYFFFDRSPATGEVVNRYSLRFRSLPIWKWYCDYFPISLIKTVNLKPTFTLSKNKRVNEKNYKIRLWPTKYSINLKSNSTIDYRNQECTGPTYLFGYHPHGIGALGAFGAFATEGCNYSKIFPGIPISLMTLVTQFHIPLYRDYLLALGISSVSRKNALRTLSKNQSICIVVGGARESLLSSTNGTQLILNKRKGFIKLAIQTGNINLVPVFAFGEVDCYNVLSTKKDSVLGKMQLWFKENFGFTIPIFYARGLFNYDFGLLPFRAPINVVVGRPIYVEKKITNPPDDVVNHFHDLYIAELKRLYYENREKYGVPDAELKIVG
notes: Dga1, diacylglycerol acyltransferase of S. cerevisiae; DGA1 amplified from W303 genomic DNA; 418 residues by the printed ranges; also called pNubG-DGA1; pADSL-NubG-DGA1; source: yeast two-hybrid fusion (split ubiquitin prey), from plasmid pADSL-NubG-DGA1 in S. cerevisiae; not shown: NubG, N-terminal, kept
B3: NubG-Dga1DEK (Dga1 D411A, E413A, K415A) (enzyme, S. cerevisiae, UniProt Q08650 1-418, looked up)
chain: B2 chain with D411A, E413A, K415A
notes: Dga1 of S. cerevisiae, charged-to-alanine mutant made in pADSL-NubG-DGA1 (the full-length fusion); source: yeast two-hybrid fusion (split ubiquitin prey), synthetic DNA fragment assembled into pADSL-NubG-DGA1, in S. cerevisiae; not shown: NubG, N-terminal, kept
B4: NubG-Dga1KR (Dga1 K397A, R398A) (enzyme, S. cerevisiae, UniProt Q08650 1-418, looked up)
chain: B2 chain with K397A, R398A
notes: as for B3
B5: NubG-Gpt2 (enzyme, S. cerevisiae, UniProt P36148 1-743, looked up)
chain: MSAPAADHNAAKPIPHVPQASRRYKNSYNGFVYNIHTWLYDVSVFLFNILFTIFFREIKVRGAYNVPEVGVPTILVCAPHANQFIDPALVMSQTRLLKTSAGKSRSRMPCFVTAESSFKKRFISFFGHAMGGIPVPRIQDNLKPVDENLEIYAPDLKNHPEIIKGRSKNPQTTPVNFTKRFSAKSLLGLPDYLSNAQIKEIPDDETIILSSPFRTSKSKVVELLTNGTNFKYAEKIDNTETFQSVFDHLHTKGCVGIFPEGGSHDRPSLLPIKAGVAIMALGAVAADPTMKVAVVPCGLHYFHRNKFRSRAVLEYGEPIVVDGKYGEMYKDSPRETVSKLLKKITNSLFSVTENAPDYDTLMVIQAARRLYQPVKVRLPLPAIVEINRRLLFGYSKFKDDPRIIHLKKLVYDYNRKLDSVGLKDHQVMQLKTTKLEALRCFVTLIVRLIKFSVFAILSLPGSILFTPIFIICRVYSEKKAKEGLKKSLVKIKGTDLLATWKLIVALILAPILYVTYSILLIILARKQHYCRIWVPSNNAFIQFVYFYALLVFTTYSSLKTGEIGVDLFKSLRPLFVSIVYPGKKIEEIQTTRKNLSLELTAVCNDLGPLVFPDYDKLATEIFSKRDGYDVSSDAESSISRMSVQSRSRSSSIHSIGSLASNALSRVNSRGSLTDIPIFSDAKQGQWKSEGETSEDEDEFDEKNPAIVQTARSSDLNKENSRNTNISSKIASLVRQKREHEKKE
notes: Gpt2, glycerophosphate acyltransferase of S. cerevisiae; also called pNubG-GPT2; pADSL-NubG-GPT2; source: yeast two-hybrid fusion (split ubiquitin prey), from plasmid pADSL-NubG-GPT2 in S. cerevisiae; not shown: NubG, N-terminal, kept
B6: NubG-Slc1 (enzyme, S. cerevisiae, UniProt P33333 1-303, looked up)
chain: T2 sequence (looked up)
notes: Slc1, lysophosphatidic acid acyltransferase of S. cerevisiae; 'the SLC1 open reading frame was amplified from S. cerevisiae genomic DNA'; also called pADSL-NubG-SLC1; source: yeast two-hybrid fusion (split ubiquitin prey), from plasmid pADSL-NubG-SLC1 in S. cerevisiae; not shown: NubG, N-terminal, kept

Legend:
[1] = target: T1, Ole1-Myc-Cub-LexA-VP16; assay: two-hybrid; integrated membrane yeast two-hybrid (split ubiquitin): Ole1-Myc-Cub-LexA-VP16 from the endogenous locus of strain YBG1 as bait, NubG fusions from plasmids as prey; growth on SD-W-H-A with 6 mM 3-aminotriazole and β-galactosidase activity of cell extracts
[2] = target: T2, Slc1-Cub-LexA-VP16; assay: two-hybrid; membrane yeast two-hybrid (split ubiquitin): plasmid-borne Slc1-Cub-LexA-VP16 as bait and NubG fusions as prey in NMY51; growth on SD-W-L-H-A with 6 mM 3-aminotriazole and β-galactosidase activity of cell extracts; conditions: partners not purified

| Binder | β-galactosidase activity, fold over Alg5-NubG [2] [fold over Alg5-NubG] | β-galactosidase activity, % of wildtype Dga1 ([1]; partners not purified) | other results |
| --- | --- | --- | --- |
| B1 |  |  | β-galactosidase activity, fold of the negative control Alg5-NubG (fold of the negative control) [1]: 2; β-galactosidase activity, fold of the negative control [2]: 3 fold of the negative control |
| B2 | 17 |  | β-galactosidase activity, fold over the negative control Alg5-NubG (fold over the negative control) [1]: 11 |
| B3 |  | ~60 % of wildtype Dga1 |  |
| B4 |  | ~60 % of wildtype Dga1 |  |
| B5 | ~10 |  |  |
| B6 |  |  | β-galactosidase activity, fold over the negative control Alg5-NubG ([1]; partners not purified): 9 fold over the negative control |

Source: publication PMC10302205, “Saccharomyces cerevisiae Δ9-desaturase Ole1 forms a supercomplex with Slc1 and Dga1” (The Journal of Biological Chemistry, 2023)
